Assay: yeast display, Sf9 membrane polyspecificity reagent, FACS + sequencing; frameworks hold sequencing errors
How it was run: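 Nanobodies came from a synthetic yeast display library in Saccharomyces cerevisiae BJ5465, induced with galactose for 36–48 hours and stained for 1 hour at 4 °C with 10% biotinylated, detergent-solubilized Sf9 membrane reagent. Cells were enriched on streptavidin microbeads and then FACS-sorted, with low and high (top ~1%) gates set on anti-HA fluorescence for expression and streptavidin fluorescence for reagent binding. Each polyreactivity label reflects the gate a clone came from. Genes were amplified by colony PCR, sequenced by MiSeq 2 × 250 and filtered by CDR length.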

Sequence	polyreactivity (PSR sort gate)
QVQLVESGGGLVQAGGSLRLSCAASGRTFFYYTMGWYRQAPGKEREFVASISWSGASTYYADSVKGRFTISRDNAKNTVYLQMNSLKPEDSAVYYCAAPVTGGAYGYDYWGQGTQVTVSS	high polyreactivity
QVQLVESGGGLVQAGGSLRLSCAASGRTFGANAMGWYRQAPGKERELVAAISSSDDSTYYADSVKGRFTISRDNAKKTDDLQMNSLKPEDTAVYYCAVAVGYTDSPYSYDYWGQGTQVTVSS	low polyreactivity
QVQLVESGGGLVQAGGSLRLSCAASGRTFGANVMGWYRQAPGKERELVARISNGGRTSYADSVKARFTISRDNAKNPVYLQMNSLKPEDTAVYYCAALVVNVFPRYGYWGQGTQVTVSS	high polyreactivity
QVQLVESGGGLVQAGGSLRLSCAASGRTFGAYAMGWYRQAPGKERELVAAIDSGGITYYADSVKGRFTISRDNAKNTVYLQMNSLKPEDTAVYYCAADHRVVTFYEGDYWGQGTQVTVSS	low polyreactivity
QVQLVESGGGLVQAGGSLRLSCAASGRTFGAYAMGWYRQAPGKERELVASISRSGGTTYYADSVKGRFTISRDTAKNTVYLQMNSLKPEDTAVYYCAAQYVRYGHYYWGQATQVTVSS	high polyreactivity
QVQLVESGGGLVQAGGSLRLSCAASGRTFGDNAMGWYRQARGKERELVAAISSGDSTYYADSVKGRFTISRDNAKNSVYLQMNSLKPEDTAVYYCAARWRYTFYVSYYYWGQGTQVTVSS	high polyreactivity
QVQLVESGGGLVQAGGSLRLSCAASGRTFGEYAMGWYRQAPGKERELVAAITGGDSTNYADSVKGRFTISRDNAKNTVYFQMNSLKPEDTAVYYCAAYGVKVLWTLTTYDYWGQGTQVTVSS	low polyreactivity
QVQLVESGGGLVQAGGSLRLSCAASGRTFGFNVMGWYRQAPGKERELVAAISWSGGSTYYADSVKGRFTISRDNAKNTVYLQMNSLKPEDTAVYYCNNRYVHRYGYWGQGTQVTVSS	low polyreactivity
QVQLVESGGGLVQAGGSLRLSCAASGRTFGGNAMGWDRQAPGKERELLAAITGRGGSTYYADSLKGRFTISRDNAKNTVYLQMNSLKPEDTAVYYCNADGSAYIEDGYDYWGQGTQVTVSS	low polyreactivity
QVQLVESGGGLVQAGGSLRLSCAASGRTFGGNAMGWYRQAPGKERELVAAISGRGGSTYYADSVKGRFTISRDNAKNTVYLQMNSLKPEDTAVYYCAARSYLTPEYYYWGQGTQVTVSS	high polyreactivity
QVQLVESGGGLVQAGGSLRLSCAASGRTFGGYAMGWSRQAPGKERELVAAISWSGGRTYYADSVKGRFTISRDNAKNTVYLQMNSLKPEDTAVYYCAATSGRAFKYDYWGQGTQVTVSS	high polyreactivity
QVQLVESGGGLVQAGGSLRLSCAASGRTFGGYAMGWYRQAPGKERELVAAIRWSGGSTYYADSVKGRFTISRDNAKNTVYLQMNSLKPEDTAVYNCAARSHTSADGGRYYYWGQGTQVTVSS	high polyreactivity
QVQLVESGGGLVQAGGSLRLSCAASGRTFGGYAMGWYRQAPGKERELVAAISSSGTRTYYAESVKGRFTISRDNAKNTVYLQMNSLKPEDTAVYYCAAYRVIVWYAMDYWGQGTQVTVSS	high polyreactivity
QVQLVESGGGLVQAGGSLRLSCAASGRTFGGYAMGWYRQAPGKERELVASITRSGGGTYYADSVKGRFTISRDNAKNTVYLQMNSLKPEDTAVYYCAVYFANPYSVYGLGVYSTLNYWGQGTQVTVSS	low polyreactivity
QVQLVESGGGLVQAGGSLRLSCAASGRTFGGYVMGWYRQAPGKESELVATITDSGGSTHYADSVKGRFTISRDNAKNTVYLQMNSLKPEDTAVYYCARRRSYRYPSEYNYWGQGTQVTVSS	high polyreactivity
QVQLVESGGGLVQAGGSLRLSCAASGRTFGINAMGWYRQAPGKERELVARIRKTVGSTYYADSVKGRFTISRDNAKNTVYLQMNSLKPEDTAVYYCAADLRYGYLYPYDSWGQGTQVTVSS	high polyreactivity

Sequence	polyreactivity (PSR sort gate)
QVQLVESGGGLVQAGGSLRLSCAASGRTFGIYAMGWYRQAPGKERELVAAISSDASTSYADSVKGRFTISRDNAKNTVYLQMNSLKPEDTAVYYCAADPGPYYDWGYDYWGQGTQVTVSS	low polyreactivity
QVQLVESGGGLVQAGGSLRLSCAASGRTFGIYAMGWYRQAPGKERELVAAITGRGGSTHYADSVKGRFTISRDNAKNTVYLQMNSLKPEDTAVYYCNARWWVIRPYQRHDYWGQGTQVTVSS	low polyreactivity
QVQLVESGGGLVQAGGSLRLSCAASGRTFGIYAMGWYRQATGKERELVAGITWTGGSTYYADSVKGRFTISRDNAKNTVYLQMNSLKPEDTAVYYCAADFYVLQFYGLDYGYWGQGTQVTVSS	low polyreactivity
QVQLVESGGGLVQAGGSLRLSCAASGRTFGKNAMGWYRQAPGKEREFVAAITSRGGSTYYADSVKGRFTISRDNAKNTVYLQMNSLKPEDTAVYYCNREYNRPSQRTEHYYWGQGTQVTVSS	low polyreactivity
QVQLVESGGGLVQAGGSLRLSCAASGRTFGKNAMGWYRQAPGKERELVAAISWSGGRTYYADSVKGRFTISRDNAKNTVYLQMNSLKPEDTAVYYCAAVRRRRNSYGYWGQGTQVNVSS	high polyreactivity
QVQLVESGGGLVQAGGSLRLSCAASGRTFGKYAMGWYRQAPGKDRELVATISRSGGSTYYAVSVKGRFTISRDNAKNTVYLQMNSLKPEDTAVYYCNAVTSRYIWPPVVDRYHYWGQGTQVTVSS	high polyreactivity
QVQLVESGGGLVQAGGSLRLSCAASGRTFGLYAMGWYRQAPGKERELVATITTSDIMTYYADSVKGRFTISRDNAKNTVYLQMNRLKPEDTAVYYCATGGYDDFSSRPANDYWGQGTQVTVSS	low polyreactivity
QVQLVESGGGLVQAGGSLRLSCAASGRTFGNNAMGWYRQAPGKERELVASISSSGGTNYADSVKGRFTISRDNAKNTVYLLMNSLIPEDTAVYYCAKRKFTARQRFWGQGTQVTVSS	high polyreactivity
QVQLVESGGGLVQAGGSLRLSCAASGRTFGNYVMGWYRQAPGKERELVAAISRSGGSTYYADSVKGRFTISRDNAKNTVYLQMNSLKPVDTAVYYCNTVTTYEVEYWGQGTQVNVSS	high polyreactivity
QVQLVESGGGLVQAGGSLRLSCAASGRTFGPYAMGWYRQAPGKERELVAAITCSGGSTYYADSVKGRFTISRYNAKNTVYLQMNSLKPEDTAVYYCAPYHLSKLDYWGQGTQVTVSS	low polyreactivity
QVQLVESGGGLVQAGGSLRLSCAASGRTFGPYAMGWYRQAPGKEREMVAAIRFSGGSTYYADSVKGRFTISRDNAKNTVYLQMNSLKPEDTAVYYCNARLGSSKGRVEKYGSWGQGTQVTVSS	high polyreactivity
QVQLVESGGGLVQAGGSLRLSCAASGRTFGPYVMGGDRQAPGKERELVAGITSGGSTNYADSVKGRFTISRDNAKNTVYRQMNSLKPEDTAVYYCNADYLIYFGLYEYWGHGTQVTVSS	low polyreactivity
QVQLVESGGGLVQAGGSLRLSCAASGRTFGRNAMGWYRQAPGKERELVAAISDRGASTYYADSVKGRFTISRDNAKNTVYLQMNSLKPEDTAVYYCAAVFWVDILPGDYWGQGTQVTVSS	low polyreactivity
QVQLVESGGGLVQAGGSLRLSCAASGRTFGRNDMGWYRQAPGKERELLATITSGGSTNYADSVKGRFTISRDNAKNTVYLQMISLKPEDTAVYYCAAEFSPSRWAYSEGALRYNYWGQGTQVTVSS	low polyreactivity
QVQLVESGGGLVQAGGSLRLSCAASGRTFGRNVMGWYRQAPGKERELVAAISRSGGSTYYADSVKGRFTISRDNAKNTVYLQMNSLKPEDTAVYYCAAKYYRDRDWGQGTQVTVSS	high polyreactivity
QVQLVESGGGLVQAGGSLRLSCAASGRTFGRYALGWYRQAPGKERELVAAIRSGGSTYYADSVKGRFTISRDNAKNTVYLQMNSLKPEDTAVYYCAADIARHLTGFAYYRLDYWGQGTQVTVSS	low polyreactivity

— the nanobody polyreactivity screen of Harvey et al. (2022)
